Columns and labels:
[1] = tested on: HeLa Kyoto; test: solubility change mitosis vs G1/S (difference of NP-40 vs SDS log2 ratios) (log2 ratio difference); higher = more soluble in mitosis
[2] = tested on: HeLa Kyoto; test: thermal stability score vs G1/S (z-score of summed log2 fold changes over temperatures); higher = more thermally stable than in G1/S
[3] = tested on: HeLa Kyoto; test: solubility in G1/S (NP-40 vs SDS abundance) (log2 ratio); higher = more soluble; conditions: cell cycle stage: G1/S
[4] = tested on: HeLa Kyoto; test: melting temperature (median over replicates), in situ; higher = more thermally stable
[5] = cell cycle stage: early G1 (4.5 h after nocodazole release)
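Wherever melting temperature (median over replicates), in situ is given: HeLa Kyoto cells synchronized by double thymidine or nocodazole block, proteins quantified by TMT10plex mass spectrometry, three independent biological replicates.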
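Wherever solubility change mitosis vs G1/S (difference of NP-40 vs SDS log2 ratios) is given: synchronized HeLa Kyoto cells (double thymidine block for G1/S, nocodazole release for mitosis), protein amounts in NP-40 versus SDS lysates quantified by mass spectrometry, three biological replicates.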
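Wherever solubility in G1/S (NP-40 vs SDS abundance) is given: HeLa Kyoto cells arrested at G1/S by double thymidine block, proteins quantified by TMT10plex mass spectrometry in mild NP-40 versus SDS extracts, three biological replicates.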
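Wherever thermal stability score vs G1/S (z-score of summed log2 fold changes over temperatures) is given: synchronized HeLa Kyoto cells, proteins quantified by TMT10plex mass spectrometry, three biological replicates, mitosis taken 0.5 h after nocodazole release, G1/S directly after double thymidine block.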

| Substance | solubility change mitosis (log2) [1] | thermal stability score [2, 5] | thermal stability score ([2]; cell cycle stage: mitosis) | solubility in G1/S (log2) [3] | melting temperature ([4]; cell cycle stage: G1/S) | melting temperature ([4]; cell cycle stage: mitosis) |
| --- | --- | --- | --- | --- | --- | --- |
| MSAAIAALAASYGSGSGSESDSDSESSRCPLPAADSLMHLTKSPSSKPSLAVAVDSAPEVAVKEDLETGVHLDPAVKEVQYNPTYETMFAPEFGPENPFRTQQMAAPRNMLSGYAEPAHINDFMFEQQRRTFATYGYALDPSLDNHQVSAKYIGSVEEAEKNQGLTVFETGQKKTEKRKKFKENDASNIDGFLGPWAKYVDEKDVAKPSEEEQKELDEITAKRQKKGKQEEEKPGEEKTILHVKEMYDYQGRSYLHIPQDVGVNLRSTMPPEKCYLPKKQIHVWSGHTKGVSAVRLFPLSGHLLLSCSMDCKIKLWEVYGERRCLRTFIGHSKAVRDICFNTAGTQFLSAAYDRYLKLWDTETGQCISRFTNRKVPYCVKFNPDEDKQNLFVAGMSDKKIVQWDIRSGEIVQEYDRHLGAVNTIVFVDENRRFVSTSDDKSLRVWEWDIPVDFKYIAEPSMHSMPAVTLSPNGKWLACQSMDNQILIFGAQNRFRLNKKKIFKGHMVAGYACQVDFSPDMSYVISGDGNGKLNIWDWKTTKLYSRFKAHDKVCIGAVWHPHETSKVITCGWDGLIKLWD [CDC40] | 0.525 | -1 | -0.655 | -0.918 | 53.1 °C | 51.9 °C |
| MAASAKRKQEEKHLKMLRDMTGLPHNRKCFDCDQRGPTYVNMTVGSFVCTSCSGSLRGLNPPHRVKSISMTTFTQQEIEFLQKHGNEVCKQIWLGLFDDRSSAIPDFRDPQKVKEFLQEKYEKKRWYVPPEQAKVVASVHASISGSSASSTSSTPEVKPLKSLLGDSAPTLHLNKGTPSQSPVVGRSQGQQQEKKQFDLLSDLGSDIFAAPAPQSTATANFANFAHFNSHAAQNSANADFANFDAFGQSSGSSNFGGFPTASHSPFQPQTTGGSAASVNANFAHFDNFPKSSSADFGTFNTSQSHQTASAVSKVSTNKAGLQTADKYAALANLDNIFSAGQGGDQGSGFGTTGKAPVGSVVSVPSQSSASSDKYAALAELDSVFSSAATSSNAYTSTSNASSNVFGTVPVVASAQTQPASSSVPAPFGATPSTNPFVAAAGPSVASSTNPFQTNARGATAATFGTASMSMPTGFGTPAPYSLPTSFSGSFQQPAFPAQAAFPQQTAFSQQPNGAGFAAFGQTKPVVTPFGQVAAAGVSSNPFMTGAPTGQFPTGSSSTNPFL [AGFG1] | -0.0484 | 0.14 | -0.191 | 0.0305 | 50.9 °C | 52.1 °C |
| MWPQPRLPPRPAMSEETRQSKLAAAKKKLREYQQRNSPGVPTGAKKKKKIKNGSNPETTTSGGCHSPEDTPKDNAATLQPSDDTVLPGGVPSPGASLTSMAASQNHDADNVPNLMDETKTFSSTESLRQLSQQLNGLVCESATCVNGEGPASSANLKDLESRYQQLAVALDSSYVTNKQLNITIEKLKQQNQEITDQLEEEKKECHQKQGALREQLQVHIQTIGILVSEKAELQTALAHTQHAARQKEGESEDLASRLQYSRRRVGELERALSAVSTQQKKADRYNKELTKERDALRLELYKNTQSNEDLKQEKSELEEKLRVLVTEKAGMQLNLEELQKKLEMTELLLQQFSSRCEAPDANQQLQQAMEERAQLEAHLGQVMESVRQLQMERDKYAENLKGESAMWRQRMQQMSEQVHTLREEKECSMSRVQELETSLAELRNQMAEPPPPEPPAGPSEVEQQLQAEAEHLRKELEGLAGQLQAQVQDNEGLSRLNREQEERLLELERAAELWGEQAEARRQILETMQNDRTTISRALSQNRELKEQLAELQSGFVKLTNENMEITSALQSEQHVKRELGKKLGELQEKLSELKETVELKSQEAQSLQQQRDQYLGHLQQYVAAYQQLTSEKEVLHNQLLLQTQLVDQLQQQEAQGKAVAEMARQELQETQERLEAATQQNQQLRAQLSLMAHPGEGDGLDREEEEDEEEEEEEAVAVPQPMPSIPEDLESREAMVAFFNSAVASAEEEQARLRGQLKEQRVRCRRLAHLLASAQKEPEAAAPAPGTGGDSVCGETHRALQGAMEKLQSRFMELMQEKADLKERVEELEHRCIQLSGETDTIGEYIALYQSQRAVLKERHREKEEYISRLAQDKEEMKVKLLELQELVLRLVGDRNEWHGRFLAAAQNPADEPTSGAPAPQELGAANQQGDLCEVSLAGSVEPAQGEAREGSPRDNPTAQQIMQLLREMQNPRERPGLGSNPCIPFFYRADENDEVKITVI [GOLGA2] | 0.0669 | 1.74 | 3.29 | 0.522 | 48.9 °C | 48.9 °C |
| MED14 | -0.0671 | 0.0685 | 1.11 | -0.117 | 48.7 °C | 50.1 °C |
| MADGGSERADGRIVKMEVDYSATVDQRLPECAKLAKEGRLQEVIETLLSLEKQTRTASDMVSTSRILVAVVKMCYEAKEWDLLNENIMLLSKRRSQLKQAVAKMVQQCCTYVEEITDLPIKLRLIDTLRMVTEGKIYVEIERARLTKTLATIKEQNGDVKEAASILQELQVETYGSMEKKERVEFILEQMRLCLAVKDYIRTQIISKKINTKFFQEENTEKLKLKYYNLMIQLDQHEGSYLSICKHYRAIYDTPCIQAESEKWQQALKSVVLYVILAPFDNEQSDLVHRISGDKKLEEIPKYKDLLKLFTTMELMRWSTLVEDYGMELRKGSLESPATDVFGSTEEGEKRWKDLKNRVVEHNIRIMAKYYTRITMKRMAQLLDLSVDESEAFLSNLVVNKTIFAKVDRLAGIINFQRPKDPNNLLNDWSQKLNSLMSLVNKTTHLIAKEEMIHNLQ [PSMD12] | -0.104 | 2.61 | 2.56 | 0.0925 | 52.3 °C | 51.6 °C |
| MAAPAQPKKIVAPTVSQINAEFVTQLACKYWAPHIKKKSPFDIKVIEDIYEKEIVKSRFAIRKIMLLEFSQYLENYLWMNYSPEVSSKAYLMSICCMVNEKFRENVPAWEIFKKKPDHFPFFFKHILKAALAETDGEFSLHEQTVLLLFLDHCFNSLEVDLIRSQVQQLISLPMWMGLQLARLELELKKTPKLRKFWNLIKKNDEKMDPEAREQAYQERRFLSQLIQKFISVLKSVPLSEPVTMDKVHYCERFIELMIDLEALLPTRRWFNTILDDSHLLVHCYLSNLVRREEDGHLFSQLLDMLKFYTGFEINDQTGNALTENEMTTIHYDRITSLQRAAFAHFPELYDFALSNVAEVDTRESLVKFFGPLSSNTLHQVASYLCLLPTLPKNEDTTFDKEFLLELLVSRHERRISQIQQLNQMPLYPTEKIIWDENIVPTEYYSGEGCLALPKLNLQFLTLHDYLLRNFNLFRLESTYEIRQDIEDSVSRMKPWQSEYGGVVFGGWARMAQPIVAFTVVEVAKPNIGENWPTRVRADVTINLNVRDHIKDEWEGLRKHDVCFLITVRPTKPYGTKFDRRRPFIEQVGLVYVRGCEIQGMLDDKGRVIEDGPEPRPNLRGESRTFRVFLDPNQYQQDMTNTIQNGAEDVYETFNIIMRRKPKENNFKAVLETIRNLMNTDCVVPDWLHDIILGYGDPSSAHYSKMPNQIATLDFNDTFLSIEHLKASFPGHNVKVTVEDPALQIPPFRITFPVRSGKGKKRKDADVEDEDTEEAKTLIVEPHVIPNRGPYPYNQPKRNTIQFTHTQIEAIRAGMQPGLTMVVGPPGTGKTDVAVQIISNIYHNFPEQRTLIVTHSNQALNQLFEKIMALDIDERHLLRLGHGEEELETEKDFSRYGRVNYVLARRIELLEEVKRLQKSLGVPGDASYTCETAGYFFLYQVMSRWEEYISKVKNKGSTLPDVTEVSTFFPFHEYFANAPQPIFKGRSYEEDMEIAEGCFRHIKKIFTQLEEFRASELLRSGLDRSKYLLVKEAKIIAMTCTHAALKRHDLVKLGFKYDNILMEEAAQILEIETFIPLLLQNPQDGFSRLKRWIMIGDHHQLPPVIKNMAFQKYSNMEQSLFTRFVRVGVPTVDLDAQGRARASLCNLYNWRYKNLGNLPHVQLLPEFSTANAGLLYDFQLINVEDFQGVGESEPNPYFYQNLGEAEYVVALFMYMCLLGYPADKISILTTYNGQKHLIRDIINRRCGNNPLIGRPNKVTTVDRFQGQQNDYILLSLVRTRAVGHLRDVRRLVVAMSRARLGLYIFARVSLFQNCFELTPAFSQLTARPLHLHIIPTEPFPTTRKNGERPSHEVQIIKNMPQMANFVYNMYMHLIQTTHHYHQTLLQLPPAMVEEGEEVQNQETELETEEEAMTVQADIIPSPTDTSCRQETPAFQTDTTPSETGATSTPEAIPALSETTPTVVGAVSAPAEANTPQDATSAPEETK [AQR] | 0.0502 | 0.352 | 2.51 | -0.435 | 48 °C | 50 °C |
| MAASWRLGCDPRLLRYLVGFPGRRSVGLVKGALGWSVSRGANWRWFHSTQWLRGDPIKILMPSLSPTMEEGNIVKWLKKEGEAVSAGDALCEIETDKAVVTLDASDDGILAKIVVEEGSKNIRLGSLIGLIVEEGEDWKHVEIPKDVGPPPPVSKPSEPRPSPEPQISIPVKKEHIPGTLRFRLSPAARNILEKHSLDASQGTATGPRGIFTKEDALKLVQLKQTGKITESRPTPAPTATPTAPSPLQATAGPSYPRPVIPPVSTPGQPNAVGTFTEIPASNIRRVIAKRLTESKSTVPHAYATADCDLGAVLKVRQDLVKDDIKVSVNDFIIKAAAVTLKQMPDVNVSWDGEGPKQLPFIDISVAVATDKGLLTPIIKDAAAKGIQEIADSVKALSKKARDGKLLPEEYQGGSFSISNLGMFGIDEFTAVINPPQACILAVGRFRPVLKLTEDEEGNAKLQQRQLITVTMSSDSRVVDDELATRFLKSFKANLENPIRLA [PDHX] | -0.00638 | -1.5 | -1.54 | 0.248 | 53.5 °C | 52.9 °C |
| MAVKKIAIFGATGQTGLTTLAQAVQAGYEVTVLVRDSSRLPSEGPRPAHVVVGDVLQAADVDKTVAGQDAVIVLLGTRNDLSPTTVMSEGARNIVAAMKAHGVDKVVACTSAFLLWDPTKVPPRLQAVTDDHIRMHKVLRESGLKYVAVMPPHIGDQPLTGAYTVTLDGRGPSRVISKHDLGHFMLRCLTTDEYDGHSTYPSHQYQ [BLVRB] | -0.116 | 4.14 | 2.47 | 0.417 | 50.4 °C | 50.7 °C |
| MSSEDREAQEDELLALASIYDGDEFRKAESVQGGETRIYLDLPQNFKIFVSGNSNECLQNSGFEYTICFLPPLVLNFELPPDYPSSSPPSFTLSGKWLSPTQLSALCKHLDNLWEEHRGSVVLFAWMQFLKEETLAYLNIVSPFELKIGSQKKVQRRTAQASPNTELDFGGAAGSDVDQEEIVDERAVQDVESLSNLIQEILDFDQAQQIKCFNSKLFLCSICFCEKLGSECMYFLECRHVYCKACLKDYFEIQIRDGQVQCLNCPEPKCPSVATPGQVKELVEAELFARYDRLLLQSSLDLMADVVYCPRPCCQLPVMQEPGCTMGICSSCNFAFCTLCRLTYHGVSPCKVTAEKLMDLRNEYLQADEANKRLLDQRYGKRVIQKALEEMESKEWLEKNSKSCPCCGTPIEKLDGCNKMTCTGCMQYFCWICMGSLSRANPYKHFNDPGSPCFNRLFYAVDVDDDIWEDEVED [RNF14] | -0.286 | 0.508 | 1.14 | 0.119 | 49.6 °C | 49.1 °C |
| MSKPELKEDKMLEVHFVGDDDVLNHILDREGGAKLKKERAQLLVNPKKIIKKPEYDLEEDDQEVLKDQNYVEIMGRDVQESLKNGSATGGGNKVYSFQNRKHSEKMAKLASELAKTPQKSVSFSLKNDPEITINVPQSSKGHSASDKVQPKNNDKSEFLSTAPRSLRKRLIVPRSHSDSESEYSASNSEDDEGVAQEHEEDTNAVIFSQKIQAQNRVVSAPVGKETPSKRMKRDKTSDLVEEYFEAHSSSKVLTSDRTLQKLKRAKLDQQTLRNLLSKVSPSFSAELKQLNQQYEKLFHKWMLQLHLGFNIVLYGLGSKRDLLERFRTTMLQDSIHVVINGFFPGISVKSVLNSITEEVLDHMGTFRSILDQLDWIVNKFKEDSSLELFLLIHNLDSQMLRGEKSQQIIGQLSSLHNIYLIASIDHLNAPLMWDHAKQSLFNWLWYETTTYSPYTEETSYENSLLVKQSGSLPLSSLTHVLRSLTPNARGIFRLLIKYQLDNQDNPSYIGLSFQDFYQQCREAFLVNSDLTLRAQLTEFRDHKLIRTKKGTDGVEYLLIPVDNGTLTDFLEKEEEEA [ORC2] | 0.06 | 1.23 | 1.67 | 0.117 | 48.1 °C | 49.2 °C |
| ARHGEF12 | -0.0996 | -0.146 | 0.3 | -0.0555 | 50.7 °C | 50.4 °C |
